In PMC6009593 (Nucleic Acids Research, 2018) one finds Kd data, which are given here for two molecules.

To fix the notation:
B1: Pyrococcus furiosus Proliferating Cell Nuclear Antigen (PfuPCNA) (natural protein)
chain: MPFEIVFEGAKEFAQLIDTASKLIDEAAFKVTEDGISMRAMDPSRVVLIDLNLPSSIFSKYEVVEPETIGVNMDHLKKILKRGKAKDTLILKKGEENFLEITIQGTATRTFRVPLIDVEEMEVDLPELPFTAKVVVLGEVLKDAVKDASLVSDSIKFIARENEFIMKAEGETQEVEIKLTLEDEGLLDIEVQEETKSAYGVSYLSDMVKGLGKADEVTIKFGNEMPMQMEYYIRDEGRLTFLLAPRVEE

Assay [1] has as its target B1. The assay is described as follows: SPR. For orientation: Surface plasmon resonance follows binding to a sensor surface in real time, without labels.
The target of assay [2] is Pyrococcus furiosus Mre11–Rad50 complex, wild type, full length (PfuMR wt) (Pyrococcus furiosus, UniProt Q8U1N9 1-426; P58301 1-882). The assay is described as follows: SPR.
Pyrococcus furiosus Mre11–Rad50 complex, wild type, full length (PfuMR wt), sequence (P58301 whole entry, one chain of several): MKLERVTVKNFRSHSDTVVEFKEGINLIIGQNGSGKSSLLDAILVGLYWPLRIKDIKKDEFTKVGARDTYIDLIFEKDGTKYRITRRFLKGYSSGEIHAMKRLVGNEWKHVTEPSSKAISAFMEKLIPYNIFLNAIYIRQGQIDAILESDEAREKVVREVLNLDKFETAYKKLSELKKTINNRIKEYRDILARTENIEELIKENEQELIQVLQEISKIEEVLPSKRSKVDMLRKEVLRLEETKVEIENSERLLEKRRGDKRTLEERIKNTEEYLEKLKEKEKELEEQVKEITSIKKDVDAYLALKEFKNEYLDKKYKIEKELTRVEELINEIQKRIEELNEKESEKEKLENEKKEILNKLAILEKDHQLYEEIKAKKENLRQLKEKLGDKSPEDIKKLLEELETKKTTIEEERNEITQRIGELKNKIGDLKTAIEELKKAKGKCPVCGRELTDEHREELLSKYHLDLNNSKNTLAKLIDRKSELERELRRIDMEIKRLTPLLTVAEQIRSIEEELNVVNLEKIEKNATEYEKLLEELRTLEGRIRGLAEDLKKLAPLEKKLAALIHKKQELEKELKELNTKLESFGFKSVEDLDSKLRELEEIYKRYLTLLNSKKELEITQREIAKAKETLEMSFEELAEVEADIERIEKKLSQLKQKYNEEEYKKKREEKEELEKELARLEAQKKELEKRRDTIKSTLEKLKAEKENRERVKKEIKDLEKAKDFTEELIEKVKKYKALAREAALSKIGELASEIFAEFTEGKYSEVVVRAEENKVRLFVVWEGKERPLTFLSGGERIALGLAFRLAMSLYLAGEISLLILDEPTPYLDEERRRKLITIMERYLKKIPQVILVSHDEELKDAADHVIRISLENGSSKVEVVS

Usually Kd stands for the equilibrium constant for the complex coming apart. A higher Kd goes with lower affinity. As for Ac-KKKRGTLDSWLGG-NH2 [PIP-like Mre11 peptide (PfuMre11 412–424)], in assay [1], the Kd was 4050 nM.
Turning to B1, in assay [2], the Kd was ~4.07 nM.
